For 48 molecules, binding result, koff and Kd results are on record in patent publication US20190264194A1 (published 2019).

Broadly, the koff is the rate constant with which the complex falls apart. Low values mean a long-lived complex, high ones a short-lived complex.

Assay [1] addresses T1, human C-reactive protein (human, UniProt P02741 19-224).
T1 construct: Biotinylated or labelled with Alexa Fluor 488; also called CRP; C-RP
T1 sequence (looked up): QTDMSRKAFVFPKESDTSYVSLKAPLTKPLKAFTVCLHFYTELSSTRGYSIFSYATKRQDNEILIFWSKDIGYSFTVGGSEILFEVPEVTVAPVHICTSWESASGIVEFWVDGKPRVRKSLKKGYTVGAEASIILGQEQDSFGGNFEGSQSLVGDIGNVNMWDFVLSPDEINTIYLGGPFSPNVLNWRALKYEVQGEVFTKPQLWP
The assay is described as follows: clones isolated by MACS and FACS from the E. coli OmpA loop 1 15-mer library.

The target in assay [2] is T2, streptavidin (UniProt P22629 37-163, limits assumed).
T2 construct: Used as phycoerythrin conjugate or on coated beads; also called SA; streptavidin-phycoerythrin
The assay is described as follows: selection from the XCCX4CX7CX library displayed in loop 2 of OmpX.

Assay [3] has as its target T2, streptavidin. The assay is described as follows: selection from the X4CX3CX4 library displayed in loop 2 of OmpX.
The target in assay [4] is T2, streptavidin. The assay is described as follows: whole-cell dissociation by flow cytometry, 1-2 uM biotin as competitor. The procedure: The apparent binding affinities of a subset of the selected peptides were determined using flow cytometric analysis. […] See Daugherty, P. S., et al. (1998) Protein Eng. 11(9):825-832, which is herein incorporated by reference. […] See Daugherty, P. S., et al. (1998) Protein Eng. 11(9):825-832; and Feldhaus, M. J., et al. (2003) Nat. Biotechnol. 21(2): 163-170, which are herein incorporated by reference. […] Apparent dissociation rate constants (kdiss) were determined for streptavidin, using about 1 to about 2 μM biotin as a competitor to prevent re-binding.
(§1) To obtain equilibrium binding curves, cells were labeled over a range of concentrations, e.g., about 0.1 to about 200 nM, of fluorescently conjugated target proteins (streptavidin-phycoerythrin or CRP-Alexa Fluor® 488) and analyzed by flow cytometry, as above. The corresponding mean fluorescence versus concentration data were fit to a monovalent binding isotherm to obtain the apparent KD. Dissociation rates of streptavidin-binding clones were measured in the presence of about 1 to about 2 μM biotin. Cells were labeled with 50 nM streptavidin-phycoerythrin for 30 minutes at room temperature. The cells were then pelleted, resuspended in PBS with biotin, and immediately analyzed by flow cytometry. Fluorescence data were collected continuously for about five minutes. The dissociation rate constants were then determined as described previously. See Daugherty, P. S., et al. (1998) Protein Eng. 11(9):825-832, which is herein incorporated by reference.
Background: In flow cytometry, cells or beads pass a laser one at a time.

Assay [5] deals with T2, streptavidin. Nature of the assay: apparent whole-cell KD, flow cytometry with streptavidin-phycoerythrin. The procedure:
as §1

Assay [6] concerns the target T1, human C-reactive protein. The assay is described as follows: selection from the E. coli display library. The procedure:
The library was first depleted of streptavidin binding peptides by incubation with streptavidin coated microbeads, e.g., from Qiagen, Inc. (Valencia, Calif.). Then the library was incubated with biotinylated human C-reactive protein at 10 nM final concentration, and two rounds of magnetic selection were used to enrich CRP binding peptides. […] Equilibrium binding affinities were measured in the whole cell format, by determining cell fluorescence at various concentrations of target CRP. See e.g. FIG. 17.

Assay [7] concerns the target T1, human C-reactive protein. Nature of the assay: apparent whole-cell KD, flow cytometry with CRP-Alexa Fluor 488. The procedure:
as §1

For the next assay, the target named is T3, human serum albumin (human, UniProt P02768 25-609).
T3 construct: Biotinylated or FITC-conjugated; also called HSA
The assay is described as follows: clones isolated by MACS and FACS from the E. coli OmpA loop 1 15-mer library.

B1: CRP-13 (peptide)
peptide: TTCKYYLSCRWRKDL
notes: Insert only
On to B1, for which the binding result with human C-reactive protein [1] is reported as “binds”.

B2: SEQ ID NO 274 (peptide)
peptide: LCCHPQNCVSFRHVECR
As for B2, in the assay with streptavidin [2], the binding result is “binds”.

B3: SEQ ID NO 277 (peptide)
peptide: CMIICQNVCYRKC
Take B3: the binding result with streptavidin [3] is “binds”.

B4: SEQ ID NO 281 (peptide)
peptide: PTLICMNVCFYDQ
Take B4: the binding result with streptavidin [3] was “binds”.

B5: SA-1 (peptide)
peptide: RLEICQNVCYYLGTL
notes: Insert only; also called SA-1 pep
B5 displayed an off-rate constant (koff) with streptavidin [4] of about 0.001 s⁻¹. Besides, the Kd in the assay with streptavidin [5] is 10 nM.

B6: SEQ ID NO 278 (peptide)
peptide: KALVCQNVCYTMS
For the molecule B6, the binding result with streptavidin [3] is “binds”.

B7: CRP-11 (peptide)
peptide: TDFLSYYRVYRTPLQ
notes: Insert only
Consider B7, for which, in the assay with human C-reactive protein [1], the binding result was “binds”.

B8: CRP-7 (peptide)
peptide: LMNWRGFMVPRESPK
notes: Insert only
Turning to B8, in the assay with human C-reactive protein [1], the binding result is on record as “binds”.

B9: SEQ ID NO 270 (peptide)
peptide: ICCHPQVCSGLNRFRCG
In the case of B9, the binding result with streptavidin [2] is “binds”.

B10: CRP-9 (peptide)
peptide: PYLNARGFSVTREQI
notes: Insert only
Consider B10, for which the binding result in the assay with human C-reactive protein [1] is listed as “binds”.

B11: SA-8 (peptide)
peptide: IMMECFYVCTIANTQ
notes: Insert only
B11 came in with a koff with streptavidin [4] of about 0.01 s⁻¹.

B12: CRP-5 (peptide)
peptide: VRTWNDRGFQQSVDR
notes: Insert only
B12: the binding result with human C-reactive protein [1] is given as “binds”.

B13: SEQ ID NO 268 (peptide)
peptide: WCCHPQVCSLSLAYKCQ
B13: the binding result with streptavidin [2] is listed as “binds”.

B14: CRP-12 (peptide)
peptide: TFMPSYYRSWGPPPT
notes: Insert only
On to B14, for which the binding result in the assay with human C-reactive protein [1] is reported as “binds”.

B15: SEQ ID NO 280 (peptide)
peptide: GTLVCMNFCYLSK
Consider B15, for which the binding result with streptavidin [3] was “binds”.

B16: SA-11 (peptide)
peptide: ADTICWYVCTISVHA
notes: Insert only
For B16, the koff with streptavidin [4] is about 0.01 s⁻¹.

B17: SEQ ID NO 279 (peptide)
peptide: SKWICQNVCYPGL
As to B17, the binding result with streptavidin [3] is “binds”.

B18: SEQ ID NO 251 (peptide)
peptide: LMNWRGFMVPRESPK
With B18, the binding result with human C-reactive protein [6] is on record as “binds”.

B19: SEQ ID NO 248 (peptide)
peptide: TDFLSYYRVYRTPLQ
B19: the binding result in the assay with human C-reactive protein [6] is reported as “binds”.

B20: SA-5 (peptide)
peptide: YWVCMNVCMYYTARQ
notes: Insert only
Consider B20, for which the dissociation rate constant (koff) in the assay with streptavidin [4] is about 0.001 s⁻¹.

B21: CRP-10 (peptide)
peptide: YPPRFQYYRFYYRGP
notes: Insert only
With B21, the Kd with human C-reactive protein [7] turned out to be 5 nM.

B22: SA-4 (peptide)
peptide: VTSLCMNVCYSLTTY
notes: Insert only
Turning to B22, the koff with streptavidin [4] is about 0.001 s⁻¹.

B23: HSA-2 (peptide)
peptide: RHLYCWTWRWCHFKD
notes: Insert only
For B23, the binding result with human serum albumin is “binds”.

B24: SEQ ID NO 283 (peptide)
peptide: TYSWCANVCMHYS
Turning to B24, the binding result with streptavidin [3] is listed as “binds”.

B25: SA-10 (peptide)
peptide: SITICWYTCMVQKTA
notes: Insert only
B25: the koff with streptavidin [4] is about 0.01 s⁻¹.

B26: SEQ ID NO 272 (peptide)
peptide: ACCHPQVCVMALPYHCL
B26: the binding result with streptavidin [2] was “binds”.

B27: SEQ ID NO 249 (peptide)
peptide: TFMPSYYRSWGPPPT
As for B27, in the assay with human C-reactive protein [6], the binding result is “binds”.

B28: CRP-6 (peptide)
peptide: MIFNSRGFLSLMSSG
notes: Insert only
B28: in the assay with human C-reactive protein [7], the Kd came out at 8 nM.

B29: HSA-3 (peptide)
peptide: SYISTWLNFLFCGQS
notes: Insert only
With B29, in the assay with human serum albumin, the binding result was “binds”.

B30: SEQ ID NO 282 (peptide)
peptide: SHWFCVNVCFRIQ
Consider B30, for which, in the assay with streptavidin [3], the binding result is listed as “binds”.

B31: SEQ ID NO 269 (peptide)
peptide: ICCHPQVCAWNRVFLCK
In the case of B31, in the assay with streptavidin [2], the binding result was “binds”.

B32: SEQ ID NO 271 (peptide)
peptide: WCCHPQVCHRAMVRNCI
Take B32: the binding result in the assay with streptavidin [2] is recorded as “binds”.

B33: SEQ ID NO 267 (peptide)
peptide: YCCHPQVCFLGHRAACP
On to B33, for which the binding result in the assay with streptavidin [2] is reported as “binds”.

B34: CRP-2 (peptide)
peptide: FPIYNQRGFITLASP
notes: Insert only
As for B34, the Kd in the assay with human C-reactive protein [7] came out at 3 nM.

B35: SEQ ID NO 246 (peptide)
peptide: TTCKYYLSCRWRKDL
For B35, in the assay with human C-reactive protein [6], the binding result is on record as “binds”.

B36: SEQ ID NO 284 (peptide)
peptide: TRLICANLCWYAE
For B36, in the assay with streptavidin [3], the binding result is given as “binds”.

B37: CRP-3 (peptide)
peptide: HMRWNTRGFLYPAMS
notes: Insert only
As to B37, the binding result in the assay with human C-reactive protein [1] is given as “binds”.

B38: SEQ ID NO 252 (peptide)
peptide: PYLNARGFSVTREQI
With B38, in the assay with human C-reactive protein [6], the binding result is on record as “binds”.

B39: SEQ ID NO 273 (peptide)
peptide: LCCHPQVCASAGYYACY
Consider B39, for which the binding result in the assay with streptavidin [2] is recorded as “binds”.

B40: SEQ ID NO 254 (peptide)
peptide: WTKLKNSRGFELQLD
For the molecule B40, in the assay with human C-reactive protein [6], the binding result is “binds”.

B41: CRP-8 (peptide)
peptide: WTKLKNSRGFELQLD
notes: Insert only
As for B41, the binding result in the assay with human C-reactive protein [1] is “binds”.

B42: SEQ ID NO 250 (peptide)
peptide: RYIMNHRGFYIFVPR
Regarding B42, the binding result with human C-reactive protein [6] is on record as “binds”.

B43: HSA-1 (peptide)
peptide: NPFCSWYRWRNWCTK
notes: Insert only
As for B43, the binding result in the assay with human serum albumin is “binds”.

B44: CRP-4 (peptide)
peptide: RYIMNHRGFYIFVPR
notes: Insert only
On to B44, for which the binding result with human C-reactive protein [1] is “binds”.

B45: SA-6 (peptide)
peptide: LPVWCVMHVCLTSSR
notes: Insert only
In the assay with streptavidin [4], B45 came in with a koff of about 0.001 s⁻¹.

B46: HSA-4 (peptide)
peptide: NNYSAWLRCLLRAYS
notes: Insert only
In the case of B46, the binding result with human serum albumin is recorded as “binds”.

B47: SEQ ID NO 276 (peptide)
peptide: QSLVCQNVCWMRE
With B47, the binding result in the assay with streptavidin [3] is “binds”.

B48: SEQ ID NO 275 (peptide)
peptide: ICCHPQWCGLTVWWPCK
For the molecule B48, the binding result in the assay with streptavidin [2] is recorded as “binds”.
